B1: DFFB (parent)
chain: TLVEAIKEQDGREVDWEYFYGLLF
B2: C10orf62 (parent)
chain: RALEEVEMKLQKNFLTQRENTIAG
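Further: lentivirally expressed fusions sorted by FACS into six bins by GFP to DsRed ratio, PSI derived from sequencing read proportions per bin multiplied by bin number.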

Variants of: B1
Assay: protein stability index of a GFP-peptide fusion (GPS, HEK-293T) (PSI 1-6); higher = more stable
Conditions: c terminus: a fixed tail appended
For TLVEAIGEQDGREVDWEYFYGLLF [K7G], the protein stability index was 1.79. TLVEAIFEQDGREVDWEYFYGLLF [K7F] showed a protein stability index of 2.99. TLVEAIDEQDGREVDWEYFYGLLF [K7D] gave a protein stability index of 1.58. With TLVEAISEQDGREVDWEYFYGLLF [K7S] the protein stability index was 1.31. With TLVEAIEEQDGREVDWEYFYGLLF [K7E] the protein stability index was 2.34. TLVEAIHEQDGREVDWEYFYGLLF [K7H] showed a protein stability index of 1.9. For TLVEAIREQDGREVDWEYFYGLLF [K7R], the protein stability index was 1.03. For TLVEVIKEQDGREVDWEYFYGLLF [A5V], the protein stability index was 1.48. Variant TLVEFIKEQDGREVDWEYFYGLLF [A5F] has a protein stability index of 1.89. Variant TLVENIKEQDGREVDWEYFYGLLF [A5N] has a protein stability index of 2.11. TLVEWIKEQDGREVDWEYFYGLLF [A5W] gave a protein stability index of 2.84. TLVETIKEQDGREVDWEYFYGLLF [A5T] gave a protein stability index of 2.88. Variant TLVEQIKEQDGREVDWEYFYGLLF [A5Q] has a protein stability index of 2.4. With TLVECIKEQDGREVDWEYFYGLLF [A5C] the protein stability index was 1.95. Work on TLVEEIKEQDGREVDWEYFYGLLF [A5E] yielded a protein stability index of 2.29. In the case of TLVEPIKEQDGREVDWEYFYGLLF [A5P], the protein stability index is reported as 2.74. With TLVEDIKEQDGREVDWEYFYGLLF [A5D] the protein stability index was 2.54. Work on TLVEMIKEQDGREVDWEYFYGLLF [A5M] yielded a protein stability index of 2.35. Work on TLVEHIKEQDGREVDWEYFYGLLF [A5H] yielded a protein stability index of 1.98. For TLVESIKEQDGREVDWEYFYGLLF [A5S], the protein stability index was 2.15. In the case of TLVEIIKEQDGREVDWEYFYGLLF [A5I], the protein stability index is reported as 1.36. Variant TLVEYIKEQDGREVDWEYFYGLLF [A5Y] has a protein stability index of 2.73. For TLVEKIKEQDGREVDWEYFYGLLF [A5K], the protein stability index was 1.89. TLVERIKEQDGREVDWEYFYGLLF [A5R] gave a protein stability index of 2.29. With TLVEGIKEQDGREVDWEYFYGLLF [A5G] the protein stability index was 2.68.

Variants of: B2
Assay: as above
Conditions: c terminus: a fixed tail appended
Work on RALEEVEMKLQKNFLTQRENTIGG [A23G] yielded a protein stability index of 3.41. RALEEVEMKLQKNFLTQRENTIHG [A23H] showed a protein stability index of 3.19. RALEEVEMKLQKNFLTQRENTIQG [A23Q] showed a protein stability index of 3.64. Work on RALEEVEMKLQKNFLTQRENTIMG [A23M] yielded a protein stability index of 3.05. For RALEEVEMKLQKNFLTQRENTISG [A23S], the protein stability index was 3.42. In the case of RALEEVEMKLQKNFLTQRENTIDG [A23D], the protein stability index is reported as 4.19. RALEEVEMKLQKNFLTQRENTIPG [A23P] gave a protein stability index of 3.93. For RALEEVEMKLQKNFLTQRENTIKG [A23K], the protein stability index was 4.31. For RALEEVEMKLQKNFLTQRENTING [A23N], the protein stability index was 3.2. In the case of RALEEVEMKLQKNFLTQRENTIVG [A23V], the protein stability index is reported as 3.44. RALEEVEMKLQKNFLTQRENTIYG [A23Y] showed a protein stability index of 2.91. Variant RALEEVEMKLQKNFLTQRENTILG [A23L] has a protein stability index of 3.02. With RALEEVEMKLQKNFLTQRENTIWG [A23W] the protein stability index was 2.07. Variant RALEEVEMKLQKNFLTQRENTITG [A23T] has a protein stability index of 3.67. Work on RALEEVEMKLQKNFLTQRENTIFG [A23F] yielded a protein stability index of 2.66. For RALEEVEMKLQKNFLTQRENTIRG [A23R], the protein stability index was 3.51. RALEEVEMKLQKNFLTQRENTIIG [A23I] gave a protein stability index of 3.02. In the case of RALEEVEMKLQKNFLTQRENTIEG [A23E], the protein stability index is reported as 4.28. Work on RALEEVEMKLQKNFLTQRENTICG [A23C] yielded a protein stability index of 3.36. RALEEVEMKLQKNFLTQRENTCAG [I22C] showed a protein stability index of 3.92. In the case of RALEEVEMKLQKNFLTQRENTHAG [I22H], the protein stability index is reported as 3.8. For RALEEVEMKLQKNFLTQRENTNAG [I22N], the protein stability index was 3.98. In the case of RALEEVEMKLQKNFLTQRENTSAG [I22S], the protein stability index is reported as 3.88. Variant RALEEVEMKLQKNFLTQRENTVAG [I22V] has a protein stability index of 3.59. RALEEVEMKLQKNFLTQRENTWAG [I22W] showed a protein stability index of 2.38. For RALEEVEMKLQKNFLTQRENTFAG [I22F], the protein stability index was 2.68. For RALEEVEMKLQKNFLTQRENTGAG [I22G], the protein stability index was 4.34. In the case of RALEEVEMKLQKNFLTQRENTLAG [I22L], the protein stability index is reported as 3.21. Variant RALEEVEMKLQKNFLTQRENTPAG [I22P] has a protein stability index of 3.38. With RALEEVEMKLQKNFLTQRENTYAG [I22Y] the protein stability index was 3.38. In the case of RALEEVEMKLQKNFLTQRENTEAG [I22E], the protein stability index is reported as 4.75. RALEEVEMKLQKNFLTQRENTAAG [I22A] gave a protein stability index of 4.15. With RALEEVEMKLQKNFLTQRENTDAG [I22D] the protein stability index was 4.11. With RALEEVEMKLQKNFLTQRENTQAG [I22Q] the protein stability index was 4.09. RALEEVEMKLQKNFLTQRENTMAG [I22M] showed a protein stability index of 3.54. In the case of RALEEVEMKLQKNFLTQRENTTAG [I22T], the protein stability index is reported as 3.89. RALEEVEMKLQKNFLTQRENTRAG [I22R] gave a protein stability index of 3.15. RALEEVEMKLQKNFLTQRENRIAG [T21R] gave a protein stability index of 3.2. In the case of RALEEVEMKLQKNFLTQRENYIAG [T21Y], the protein stability index is reported as 2.69. Variant RALEEVEMKLQKNFLTQRENSIAG [T21S] has a protein stability index of 4.06. Work on RALEEVEMKLQKNFLTQRENHIAG [T21H] yielded a protein stability index of 3.69. RALEEVEMKLQKNFLTQRENNIAG [T21N] gave a protein stability index of 3.61. RALEEVEMKLQKNFLTQRENLIAG [T21L] showed a protein stability index of 3.2. For RALEEVEMKLQKNFLTQRENPIAG [T21P], the protein stability index was 3.7. In the case of RALEEVEMKLQKNFLTQRENQIAG [T21Q], the protein stability index is reported as 3.85. Work on RALEEVEMKLQKNFLTQRENKIAG [T21K] yielded a protein stability index of 3.51. Work on RALEEVEMKLQKNFLTQRENWIAG [T21W] yielded a protein stability index of 2.93. Variant RALEEVEMKLQKNFLTQRENMIAG [T21M] has a protein stability index of 3.27. Work on RALEEVEMKLQKNFLTQRENIIAG [T21I] yielded a protein stability index of 3.34. In the case of RALEEVEMKLQKNFLTQRENVIAG [T21V], the protein stability index is reported as 3.36. RALEEVEMKLQKNFLTQRENTIAT [G24T] showed a protein stability index of 3.76. With RALEEVEMKLQKNFLTQRENTIAE [G24E] the protein stability index was 4.04. Work on RALEEVEMKLQKNFLTQRENTIAA [G24A] yielded a protein stability index of 3.4. With RALEEVEMKLQKNFLTQRENTIAF [G24F] the protein stability index was 2.37. Work on RALEEVEMKLQKNFLTQRENTIAM [G24M] yielded a protein stability index of 3.08. RALEEVEMKLQKNFLTQRENTIAY [G24Y] gave a protein stability index of 2.18. Variant RALEEVEMKLQKNFLTQRENTIAL [G24L] has a protein stability index of 2.65. Variant RALEEVEMKLQKNFLTQRENTIAQ [G24Q] has a protein stability index of 3.6. For RALEEVEMKLQKNFLTQRENTIAD [G24D], the protein stability index was 4.37. Variant RALEEVEMKLQKNFLTQRENTIAH [G24H] has a protein stability index of 3.07. RALEEVEMKLQKNFLTQRENTIAI [G24I] showed a protein stability index of 2.31. RALEEVEMKLQKNFLTQRENTIAV [G24V] gave a protein stability index of 2.85. In the case of RALEEVEMKLQKNFLTQRENTIAC [G24C], the protein stability index is reported as 3.23. For RALEEVEMKLQKNFLTQRENTIAP [G24P], the protein stability index was 3.71. In the case of RALEEVEMKLQKNFLTQRENTIAS [G24S], the protein stability index is reported as 3.43. With RALEEVEMKLQKNFLTQRENTIAN [G24N] the protein stability index was 3.45. RALEEVEMKLQKNFLTQRENTIAR [G24R] showed a protein stability index of 3.5. RALEEVEMKLQKNFLTQRENTIAK [G24K] showed a protein stability index of 4.19. Work on RALEEVEMKLQKNFLTQRENTIAW [G24W] yielded a protein stability index of 3.48.

Reference: the supplement of paper PMC10567573
